Results on 46 molecules are retold here after patent publication US20230174596A1 (published 2023).

One experiment deals with LRP6 E1E2 protein (human) (UniProt O75581). Nature of the experiment: spot phage ELISA.
Sequence of LRP6 E1E2 protein (human) (O75581 20-630 limits assumed): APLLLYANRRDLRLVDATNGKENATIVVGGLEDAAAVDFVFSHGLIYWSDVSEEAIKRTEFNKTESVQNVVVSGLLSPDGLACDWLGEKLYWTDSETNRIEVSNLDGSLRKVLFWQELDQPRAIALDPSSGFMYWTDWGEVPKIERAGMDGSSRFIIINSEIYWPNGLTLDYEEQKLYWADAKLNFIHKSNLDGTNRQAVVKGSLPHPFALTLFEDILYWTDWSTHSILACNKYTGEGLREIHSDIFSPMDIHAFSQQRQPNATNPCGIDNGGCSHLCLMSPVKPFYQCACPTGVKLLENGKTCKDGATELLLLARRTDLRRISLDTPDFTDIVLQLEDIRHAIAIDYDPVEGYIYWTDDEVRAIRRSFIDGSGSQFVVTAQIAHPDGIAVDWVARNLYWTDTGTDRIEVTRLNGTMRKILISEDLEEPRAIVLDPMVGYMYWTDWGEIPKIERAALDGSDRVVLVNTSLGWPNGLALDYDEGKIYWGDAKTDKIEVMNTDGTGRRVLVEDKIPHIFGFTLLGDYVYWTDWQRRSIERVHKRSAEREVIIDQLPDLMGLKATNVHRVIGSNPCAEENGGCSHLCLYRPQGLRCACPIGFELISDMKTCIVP
Details: not given
(In general: An ELISA detects its analyte on a solid surface through an enzyme-linked reagent.)
As to GCGNKIRACKQDSDCLAGCVCRDRVGCG (designed binder) [LRP6_CKP21], the ELISA worked out at 2.8 and the S/N was found to be 33.7.

GCRSVNKICKQDSDCLAGCVCGSSRNCG (designed binder) [LRP6_CKP4] displayed an ELISA of 2.82 and a S/N of 25.4.

In turn, GCRSGNTIRKRECKQDSDCLAGCVCGGPGGCG (designed binder) [LRP6_CKP9] displayed an ELISA of 2.97 and a S/N of 37.6.

In turn, GCRSNRIRCKQDSDCLAGCVCYGHGDCG (designed binder) [LRP6_CKP11] returned an ELISA of 2.65 and a S/N of 36.8.

In turn, GCRTNRVKGGCKQDSDCLAGCVCGPNGFCG (designed binder) [LRP6_CKP1] yielded an ELISA of 3.23 and a S/N of 45.5.

GCGSNKIRPRCKQDSDCLAGCVCGPNDFCG (designed binder) [LRP6_CKP14] returned an ELISA of 3.18 and a S/N of 43.5.

Molecule GCENRTKGCKQDSDCLAGCVCGFRGTCG (designed binder) [LRP6_CKP20] had an ELISA of 3.1 and a S/N of 38.7.

GCSNRVKVRACKQDSDCLAGCVCGPNGFCG (designed binder) [LRP6_CKP19] gave an ELISA of 3.27 and a S/N of 42.

Turning to GCNRIRNSCKQDSDCLAGCVCGRGDYCG (designed binder) [LRP6_CKP15], the ELISA turned out to be 2.03 and the S/N was found to be 26.3.

As to GCVNSVKRCKQDSDCLAGCVCSRGVNCG (designed binder) [LRP6_CKP13], the ELISA worked out at 3.28 and the S/N amounted to 37.8.

For GCRANRVSGRCKQDSDCLAGCVCGPNGFCG (designed binder) [LRP6_CKP18], the ELISA was determined as 1.67 and the S/N was found to be 18.3.

As to GCASSNSIRQGWCKQDSDCLAGCVCGPKSNCG (designed binder) [LRP6_CKP10], the ELISA was 3.29 and the S/N is 37.4.

As for GCVSNRVNKGCKQDSDCLAGCVCGPNGFCG (designed binder) [LRP6_CKP7], the ELISA was 3.3 and the S/N was found to be 29.

As for GCRNSIKRCKQNSDCLAGCVCSVGHGCG (designed binder) [LRP6_CKP6], the S/N came out at 37.4.

GCVNRVRGCKQDSDCLAGCVCSGGRDCG (designed binder) [LRP6_CKP2] yielded an ELISA of 3.41 and a S/N of 41.6.

In the case of GCRSNKLREARGCKQDSDCLAGCVCGSRQDCG (designed binder) [LRP6_CKP12], the ELISA came out at 0.6 and the S/N stood at 6.78.

On to GCVNKIKGCKQDSDCLAGCVCGVEGRCG (designed binder) [LRP6_CKP5], for which the ELISA came out at 3.04 and the S/N is 35.7.

GCMNHVKARRCKQDSDCLAGCVCGPNGFCG (designed binder) [LRP6_CKP3] registered an ELISA of 2.93 and a S/N of 40.2.

GCSRNSIKCKQDSDCLAGCVCASGSSCG (designed binder) [LRP6_CKP16] yielded an ELISA of 3.36 and a S/N of 31.1.

GCANRVKRTSCKQDSDCLAGCVCGPNGFCG (designed binder) [LRP6_CKP22] gave an ELISA of 3.43 and a S/N of 42.9.

On to GCRGNIIKCKQDSDCLAGCVCNESRGCG (designed binder) [LRP6_CKP8], for which the ELISA came to 3.23 and the S/N was 37.6.

In the case of GCSNYVKRCKQDSDCLAGCVCSPGGRCG (designed binder) [LRP6_CKP17], the ELISA was found to be 3.09 and the S/N was 35.9.

The next experiment has as its target T1, hVEGF-A (8-109) (human, UniProt P15692 214-315).
T1 construct: residue numbers count on mature VEGF-A; dimer
T1 sequence (looked up): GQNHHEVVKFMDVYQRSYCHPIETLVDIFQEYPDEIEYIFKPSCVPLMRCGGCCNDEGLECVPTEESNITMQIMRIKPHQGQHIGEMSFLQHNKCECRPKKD
Nature of the experiment: spot phage ELISA.
Details: not given
Take GCDVMQPYWGCEMDFDCLAGCVCHWYNSCGPL (designed binder) [9.63-70]: the binding result is “binds”.

Consider GCDVMQPYWGCEMDFDCLAGCVCHWYNSCGGI (designed binder) [9.63.44-10-A], for which the binding result is “binds”.

As to GCDVMQPYWGCEMDFDCLVGCVCHWYNSCGDE (designed binder) [9.63.44-10], the binding result is listed as “binds”.

In the case of GCDVMQPYWGCEMDFDCLAGCICHWYNSCGYA (designed binder) [9.63.44-3], the binding result is recorded as “binds”.

On to GCDVMQPYWGCEMDFDCLAGCVCHWYNSCGPL (designed binder) [9.63.44-12], for which the binding result is “binds”.

Regarding GCDVMQPYWGCEMDFDCLAGCICHWYNSCGTS (designed binder) [9.63-72], the binding result was “binds”.

On to GCDVMQPYWGCEMDFDCLAGCVCHWYNSCGQF (designed binder) [9.63.44-13], for which the binding result is on record as “binds”.

For GCDVMQPYWGCEMDFDCLAGCICHWYNSCGLQ (designed binder) [9.63-79], the binding result is reported as “binds”.

Turning to GCDVMQPYWGCEMDFDCLAGCICHWYNSCGTS (designed binder) [9.63.44-8], the binding result is reported as “binds”.

For GCDVMQPYWGCEMDFDCLAGCVCHWYNSCGGI (designed binder) [9.63.44-7], the binding result is reported as “binds”.

Regarding GCDVMQPYWGCEMDFDCLAGCICHWYNSCGFS (designed binder) [9.63.44-1], the binding result is listed as “binds”.

For GCDVMQPYWGCEMDFDCLAGCICHWYNSCGQV (designed binder) [9.63.44-2], the binding result is given as “binds”.

In the case of GCDVMQPYWGCEMDFDCLAGCICHWYNSCGSR (designed binder) [9.63.44-4], the binding result is given as “binds”.

Turning to GCDVMQPYWGCEMDFDCLAGCICHWYNSCGLQ (designed binder) [9.63.44-9], the binding result was “binds”.

A further experiment addresses T2, human VEGF-A (human, UniProt P15692-4 34-135, limits assumed).
T2 sequence (looked up): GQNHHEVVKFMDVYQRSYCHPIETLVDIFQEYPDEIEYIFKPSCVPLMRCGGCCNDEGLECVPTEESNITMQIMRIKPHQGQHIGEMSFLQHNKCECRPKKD
Nature of the experiment: cell-based or functional assay.
Details: not given
In the case of GCNIMLPFWGCGRDFECMNQCICQYYQSCG (designed binder) [VEGF_CKP9.54.90.13], the Cellular IC50 is 0.96 nM and the fold improvement relative to variant 9.54.90 (cellular IC50) is 1.41 fold.

GCNIMLPYWGCGRDFECFYECICQYYQSCG (designed binder) [VEGF_CKP9.54.90.62.F8Y]: the Cellular IC50 stood at 1.14 nM and the fold improvement relative to variant 9.54.90 (cellular IC50) was 1.18 fold.

For the molecule CNIMLPYWGCGRDFECLAGCVCQYYQSC (designed binder) [VEGF_CKP9.54.90 F7Y Δ2G], the Cellular IC50 turned out to be 3.01 nM and the fold improvement relative to variant 9.54.90 (cellular IC50) was found to be 0.44 fold.

As to GCNIMLPFWGCGRDFECMQTCICQYYQSCG (designed binder) [VEGF_CKP9.54.90.25], the Cellular IC50 was 1.26 nM and the fold improvement relative to variant 9.54.90 (cellular IC50) stood at 1.07 fold.

With GCNIMLPFWGCGRDFECFINCICQYYQSCG (designed binder) [VEGF_CKP9.54.90.44], the Cellular IC50 was 1.16 nM and the fold improvement relative to variant 9.54.90 (cellular IC50) came to 1.16 fold.

Consider GCNIMLPYWGCGRDFECMNQCICQYYQSCG (designed binder) [VEGF_CKP9.54.90.13.F8Y], for which the Cellular IC50 is 2.02 nM and the fold improvement relative to variant 9.54.90 (cellular IC50) turned out to be 0.67 fold.

With GCNIMLPFWGCGRDFECMSDCICQYYQSCG (designed binder) [VEGF_CKP9.54.90.12], the Cellular IC50 worked out at 1.2 nM and the fold improvement relative to variant 9.54.90 (cellular IC50) worked out at 1.12 fold.

Regarding GCNIMLPFWGCGRDFECFYECICQYYQSCG (designed binder) [VEGF_CKP9.54.90.62], the Cellular IC50 came out at 0.92 nM and the fold improvement relative to variant 9.54.90 (cellular IC50) was determined as 1.47 fold.

GCNIMLPFWGCGRDFECMEQCICQYYQSCG (designed binder) [VEGF_CKP9.54.90.67]: the Cellular IC50 stood at 1.1 nM and the fold improvement relative to variant 9.54.90 (cellular IC50) is 1.23 fold.

Take GCDVMQPYWGCGPDIDCLSNCICHWYNSCG (designed binder) [VEGF_CKP9.63.12.12]: the Cellular IC50 was determined as 0.56 nM and the fold improvement relative to variant 9.54.90 (cellular IC50) amounted to 2.41 fold.

Still in this experiment, the particulars now being: record 2.
Consider GCNIMLPFWGCGRDFECMEQCICQYYQSCG (designed binder) [VEGF_CKP9.54.90.67], for which the Cellular IC50 was determined as 1 nM.

On to GCDVMQPYWGCGPDIDCLSNCICHWYNSCG (designed binder) [VEGF_CKP9.63.12.12], for which the Cellular IC50 was 0.5 nM.
